Laboratory results: the supplement of paper PMC9170038

Test system: MS2 coat protein
Assay: apparent KD of MS2 coat protein; designed switch direction (-1 OFF switch, 1 ON switch): 1; higher = weaker reporter binding
Method in brief: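 The reported apparent KD is a per-design median over clusters, from curve fits of normalised cluster fluorescence. Protein titrations used SNAP-549-labelled MS2 coat protein, doubled from 0.7 or 1.5 nM to 3 µM, in Tris-HCl pH 7.5 buffer with KCl, MgCl2, BSA, DTT, tRNA and Tween-20, with no input, 200 uM small-molecule ligand, or an oligonucleotide input. The RNA switches were transcribed on Illumina chips by stalled E. coli RNA polymerase.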

[1] = input ligand: microRNA oligo, concentration not stated
[2] = Eterna round: R95, input ligand: microRNA oligo, concentration not stated
[3] = Eterna round: R95, input ligand: FMN 200 uM
[4] = Eterna round: R95, input ligand: none

Row | Sequence | apparent KD of MS2 coat protein (input ligand: FMN 200 uM) [nM] | apparent KD of MS2 coat protein [1] [nM] | apparent KD of MS2 coat protein (input ligand: none) [nM] | apparent KD of MS2 coat protein [2] [nM] | apparent KD of MS2 coat protein [3] [nM] | apparent KD of MS2 coat protein [4] [nM]
1 | GGACGUCAAUAUGAAUUCCACAUGAGGAUCACCCAUGUUCAUGAGGAUAUGGAUCCUAAUUGGAUCCAGAAGGCAUGGACGUCC [Fiskers NG3ss - 38] (Eterna round: R96, puzzle: Same State NG 3) | 81.9 | 163 | 194 |  |  | 
2 | GGAGAACAUGAGGAUCACCCAUGUGGAUGGGCGCUAGGAUAUGCGGGAGGGUGAAGAGAAGCAGAAGGAGUGGAUA [JR_SS1_Sub035] (puzzle: Same State 1) |  |  |  | 56.7 |  | 
3 | GGAGAAUAACUAGAGGAUAUCCGAGUGGUAACAUGAGGAUCACCCAUGUGAUGAAAGGAACAUGAGGAGAAGGCUAGAAUGAAGG [Mat - Same State 2 - Mod of JL - D85] (puzzle: Same State 2) |  |  |  | 34.9 | 37.3 | 77.6
4 | GGAGCCAAGGCAGGAUAUUCAUACUAAUAACAUGAGGAUCACCCAUGUAAGGCCAGAAGGCCUUGGGAGAAGGGCCAUGGCUCG [Xeonanis - 13 mod3] (Eterna round: R96, puzzle: Same State NG 2) | 22 | 57.1 | 86.7 |  |  | 
5 | GGAGCCAAGGCAGGAUAUUCAUAUUAAAACAUGAGGAUCACCCAUGUAAAGGCCAGAAGGCCGUGGGAGAAGGGCCAUGGCUCG [Xeonanis - 13 mod15] (Eterna round: R96, puzzle: Same State NG 2) | 38.5 | 51.7 | 116 |  |  | 
6 | GGAGCCAAGGCAGGAUAUUCAUAUUAAAACAUGAGGAUCACCCAUGUAAAGGCCAGAAGGCCUUUGGAGAAGGGCCAUGGCUCG [Xeonanis - 13 mod14] (Eterna round: R96, puzzle: Same State NG 2) | 17.7 | 15 | 24.4 |  |  | 
7 | GGAGCCAAGGCAGGAUAUUCAUAUUAAAUAACAUGAGGAUCACCCAUGUUGGCCAGAAGGCCAUGGGAGAAGGGCCAUGGCUCG [Xeonanis - 13 mod22] (Eterna round: R96, puzzle: Same State NG 2) | 18.8 | 53.1 | 87.2 |  |  | 
8 | GGAGCCAAGGCAGGAUAUUCAUAUUAAUAACACAUGAGGAUCACCCAUGUGGCCAGAAGGCCAUGGGAGAAGGGCCAUGGCUCG [Xeonanis - 13 mod10] (Eterna round: R96, puzzle: Same State NG 2) | 86.3 | 195 | 469 |  |  | 
9 | GGAGCCAAGGCAGGAUAUUCAUAUUAAUUACAUGAGGAUCACCCAUGUUAGGCCAGAAGGCCUUGGGAGAAGGGCCAUGGCUCG [Xeonanis - 13 mod19] (Eterna round: R96, puzzle: Same State NG 2) | 22.9 | 47.2 | 60.6 |  |  | 
10 | GGAGCCGGCACCGAGGAUAUUUAUAUUAAAACAUGAGGAUCACCCAUGUAGGCCAGAAGGCCUUGGGAGAAGGCGGAUCGGCUCG [Xeonanis - 5] (puzzle: Same State 2) |  |  |  | 75.7 | 16.4 | 79.6
11 | GGAGCCGGCACUGAGGAUAUUCAUAUUUAAACAUGAGGAUCACCCAUGUAGGCCAGAAGGCCUUGGGAGAAGGCAGGUCGGCUCU [salish99_ss2_r3_077] (puzzle: Same State 2) |  |  |  | 247 | 20.8 | 434
12 | GGAGCCGGUACUGAGGAUAUUCAUUUUAAAACAUGAGGAUCACCCAUGUAGGCCAGAAGGCCUUGGGAGAAGGCAGAUCGGCUCC [Biseusra - 6] (puzzle: Same State 2) |  |  |  | 180 | 19 | 281
13 | GGAGCCGGUACUGAGGAUAUUUAUAUUAAAACAUGAGGAUCACCCAUGUAGGCCAGAAGGCCUUGGGAGAAGGCAGAUCGGCUCC [Biseusra - 5] (puzzle: Same State 2) |  |  |  | 46.2 | 15.1 | 72.8
14 | GGAGCUGGCACUGAGGAUAUUCAUAUUUAAACAUGAGGAUCACCCAUGUAGGCCAGAAGGCCUUGGGAGAAGGCAGGUCGGCUCG [salish99_ss2_r3_085] (puzzle: Same State 2) |  |  |  | 254 | 24.6 | 354
15 | GGAGGAUGAGCGUAGGAUAUAGGAGGAGUGACAUGAGGAUCACCCAUGUAGUAGGAGGGAAAGGGCUAGAAGGACGAGGAAGAGG [JR_SS2_Sub071] (puzzle: Same State 2) |  |  |  | 51.2 | 56.1 | 70.2
16 | GGAUGAUAGACAGGAUAUUGAAUGUAAAUAGGACAAGAAGGGUCAAUGAUAUAAACGACCAGUUACAUGAGGAUCACCCAUGUU [JR_SSNG1_Sub023] (Eterna round: R96, puzzle: Same State NG 1) | 37.1 | 30.5 | 38.9 |  |  | 
17 | GGAUGAUUAACAGGAUAUCAUUUGUAAAUUGGUUGAGAAGGGUUAAUGAUUUAAACGACCUGUUACAUGAGGAUCACCCAUGUU [SameState NG1 #1] (Eterna round: R96, puzzle: Same State NG 1) |  | 45.6 |  |  |  | 
18 | GGCCUGGGUCAAGGAUAUGCUACCGUUUCGGUAGCAGAAGGUGAUCACAUGAGGAUCACCCAUGUUUACGCGAAGACGCGCGCC (Eterna round: R96, puzzle: Same State NG 1) | 526 | 59.3 | 405 |  |  | 
19 | GGCUGCGUUGUGAAGGAUAUCCGCGUCUGGACAUGAGGAUCACCCAUGUAUGCUUGGAUCGUGCCGGAGAAGGUCACGAAUGAUU [JR_SS002_Sub1213] (Eterna round: R96, puzzle: Same State 2) | 14 | 29.4 | 55.2 |  |  | 
20 | GGGUAGGAAUUACAGGAUAUAUAGAAGUUGACAUGAGGAUCACCCAUGUAUGGGUUGGGAGGAGGAUAGAAGGGUAUGAGAGGUG [JR_SS2_Sub032] (puzzle: Same State 2) |  |  |  | 123 | 125 | 113
21 | GGGUAGGAGCUACAGGAUAUAUAGAAGUUGACAUGAGGAUCACCCAUGUAAGGGUACGGAGGCGGAUAGAAGGGUAUGGGAGGUG [JR_SS2_Sub033] (puzzle: Same State 2) |  |  |  | 54.2 | 55.5 | 64.9
22 | GGUAAACAUGAGGAUCACCCAUGUAAUAUAAUGGGAGGAUAUCUGAAUUAAUUAAAUUAAGGAGAAGGCCUAAUGG [Mat - Same State 1 - Mod of Eli - D49] (puzzle: Same State 1) |  |  |  | 245 | 248 | 321
23 | GGUAAGAAUUAAGGAUAUCGAGUACAUAUGUUUAACAUGAGGAUCACCCAUGUGGGUUGCGGUAUCGAGAAGGUAAAUUAUAAG [Mat - same State NG 2 - JL mod - D63] (Eterna round: R96, puzzle: Same State NG 2) | 43.3 | 29.7 | 50.8 |  |  | 
24 | GGUAGGUUACUACCAAACAUGAGGAUCACCCAUGUAAAUGGGAAGGAUAUGGUACCUAUUUGGUACCAGAAGGUCCAAAUAAUU [Mat - Same State NG 3 - JL Mod - D95] (Eterna round: R96, puzzle: Same State NG 3) | 180 | 327 | 1410 |  |  | 
25 | GGUAGGUUACUACCAAACAUGAGGAUCACCCAUGUAAGUGGGAAGGAUAUGGUACCUAAAAGGUACCAGAAGGUCCAUAUAGUU [Mat - Same State NG 3 - JL Mod - D99] (Eterna round: R96, puzzle: Same State NG 3) | 202 | 228 | 711 |  |  | 
26 | GGUAGGUUACUACCAACACAUGAGGAUCACCCAUGUUAGUGGGAGGAUAUGGUACCUAUUUGGUACCAGAAGGCCUUGUUAAUU [Fiskers NG3ss - 14] (Eterna round: R96, puzzle: Same State NG 3) | 43.7 | 62.8 | 87.6 |  |  | 
27 | GGUAGGUUACUACCAAUACAUGAGGAUCACCCAUGUUGUCAUGAGGAUAUGGUACCUAUUUGGUACCAGAAGGCAUGUAUAAUU [Fiskers NG3ss - 20] (Eterna round: R96, puzzle: Same State NG 3) | 49.6 | 59.5 | 62 |  |  | 
